Biological target: T1, human cardiac muscle-derived troponin I (human, UniProt P19429 2-210)
T1 construct: Immobilised on a CM5 chip at about 500 RU; also called troponin I derived from human myocardium; human myocardial troponin I
Assay: SPR (Biacore T100), troponin I immobilised on CM5 chip, as in Example 1

T1 sequence (P19429 2-210 limits assumed): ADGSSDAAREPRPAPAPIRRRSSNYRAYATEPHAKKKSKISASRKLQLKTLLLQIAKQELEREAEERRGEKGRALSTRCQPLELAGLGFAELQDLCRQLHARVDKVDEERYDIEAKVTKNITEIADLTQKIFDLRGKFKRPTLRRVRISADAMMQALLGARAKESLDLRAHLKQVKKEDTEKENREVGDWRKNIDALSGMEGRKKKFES

B1: wild type scFv antibody fragment (SEQ ID NO: 62) (scFv)
scFv: DIVMTQSPSSLAMSVGQKVTMSCKSSQSLLNSSNQKNYLAWYQQKPGQSPKLLVYFASTRESGVPDRFIGSGSGTDFTLTISSVQAEDLADYFCQQHYSTPLTFGAGTKLELKRGGGGSGGGGSGGGGSEVKLEESGGGLVKPGGTLKLSCAASGFTFSSYAMSWVRQTPEKRLDWVATISSGGSYIFYPDSVKGRFTISRDNARNTLYLQMNSLRSEDTAMYYCARHHNPDKSGFAYWGQGTLVTVSAAAALEHHHHHH
notes: also called wild scFv antibody fragment
binding result: binds
